Data taken from US6617118B2, “Monoclonal antibody for analysis and clearance of polyethylene glycol and polyethylene glycol-modified molecules” (priority 1999, dated 2003).

Assays:
[1] = βG enzymatic activity of PEG-modified βG and conjugates; assay type: biochemical; conditions: purified by gel filtration, 9.2 sPEG groups/βG subunit
[2] = 150 μg i.v., after a period of rapid clearance
Protocol: Pharmacokinetics of βG-pPEG: Male BALB/c mice were i.v injected with 150 μg βG-pPEG. Serum was isolated from blood samples that were periodically removed from the tail vein of the mice. The concentration of βG-pPEG in serially-diluted serum samples was assayed in triplicate by the AGP3 ELISA. The concentration of βG-pPEG was determined by comparison to a standard curve generated with known concentrations of βG-pPEG.
A sandwich ELISA was developed in which AGP3 was employed for the capture step and AGP3-biotin used for detection. […] Binding of βG-pPEG to the immobilized AGP3 was detected by sequential addition of AGP3-biotin and streptavidin-HRP. Results represent mean values of triplicate determinations. Bars indicate the standard error of the mean. […] The effect of serum on the ELISA was examined by adding 10% mouse serum to samples before assay. […] The AGP3 ELISA was employed to measure the pharmacokinetics of βG-pPEG in mice. In FIG. 7, a BALB/c mouse was i.v. injected with 150 μg βG-pPEG. Blood samples were periodically removed from the tail vein and assayed for βG-pPEG concentration by ELISA.

[3] = pH values less than 5.0 or greater than 9.0; 4 h at 37° C., assay at pH 7.0
Protocol: To test the pH stability of βG, enzyme in βG buffer was adjusted to pH values ranging from 3-11 for 4 h at 37° C. before neutralization to pH 7.0 and assay of enzymatic activity.

immobilized AGP3 = assay: AGP3 sandwich ELISA (AGP3 capture, AGP3-biotin detection); assay type: binding; conditions: unmodified protein in PBS
Protocol: AGP3 ELISA: Maxisorp™ 96-well microplates (Nunc™, Roskilde, Denmark) were coated with 50 μL/well of AGP3 (200 μg/ml in PBS) for 3 h at 37° C. Plates were blocked with 2% skim milk in PBS overnight and washed twice with PBS/T (0.05% Tween-20 in PBS) before serial dilutions of βG or βG-pPEG (50 μL in dilution buffer) were added to wells for 1.5 h at room temperature. Plates were washed 6 times with PBS/T and 50 μL/well AGP3-biotin (20 μg/ml in dilution buffer) was added for 1.5 h at room temperature. Plates were again washed with PBS/T and 50 μL/well streptavidin-HRP (1:1000) was added for 1 h at room temperature. Plates were washed before 100 μL/well ABTS substrate was added for 30 min at room temperature. Absorbance (405 nm) of wells was measured in a microtiter plate reader. The effect of serum on the AGP3 ELISA was examined by performing the assay in the presence of 10% serum isolated from healthy BALB/c mice.
A sandwich ELISA was developed in which AGP3 was employed for the capture step and AGP3-biotin used for detection. In FIG. 6, serial dilutions of βG-pPEG in PBS (◯) or 10% mouse serum (□) as well as βG in PBS (Δ) were incubated in a microtiter plate coated with AGP3. Binding of βG-pPEG to the immobilized AGP3 was detected by sequential addition of AGP3-biotin and streptavidin-HRP. Results represent mean values of triplicate determinations. […]

B1: βG-sPEG: β-glucuronidase modified with sPEG (conjugate, UniProt P05804 1-603, looked up)
Beta-glucuronidase: MLRPVETPTREIKKLDGLWAFSLDRENCGIDQRWWESALQESRAIAVPGSFNDQFADADIRNYAGNVWYQREVFIPKGWAGQRIVLRFDAVTHYGKVWVNNQEVMEHQGGYTPFEADVTPYVIAGKSVRITVCVNNELNWQTIPPGMVITDENGKKKQSYFHDFFNYAGIHRSVMLYTTPNTWVDDITVVTHVAQDCNHASVDWQVVANGDVSVELRDADQQVVATGQGTSGTLQVVNPHLWQPGEGYLYELCVTAKSQTECDIYPLRVGIRSVAVKGEQFLINHKPFYFTGFGRHEDADLRGKGFDNVLMVHDHALMDWIGANSYRTSHYPYAEEMLDWADEHGIVVIDETAAVGFNLSLGIGFEAGNKPKELYSEEAVNGETQQAHLQAIKELIARDKNHPSVVMWSIANEPDTRPQGAREYFAPLAEATRKLDPTRPITCVNVMFCDAHTDTISDLFDVLCLNRYYGWYVQSGDLETAEKVLEKELLAWQEKLHQPIIITEYGVDTLAGLHSMYTDMWSEEYQCAWLDMYHRVFDRVSAVVGEQVWNFADFATSQGILRVGGNKKGIFTRDRKPKSAAFLLQKRWTGMNFGEKPQQGGKQ
modifications: sPEG modified
For B1, the “original enzymatic activity possessed” value [1] was 69%.

B2: βG-pPEG: β-glucuronidase modified with pPEG (conjugate, UniProt P05804 1-603, looked up)
Beta-glucuronidase: B1 Beta-glucuronidase
modifications: pPEG modified
In the case of B2, the “first-order half-life of elimination from the circulation” value [2] is reported as 19.2 h.

B3: Eschericia coli β-glucuronidase (protein, UniProt P05804 1-603, looked up)
Beta-glucuronidase: B1 Beta-glucuronidase
notes: recombinant Eschericia coli-derived β-glucuronidase
With B3 the “pH stability of enzymatic activity” value [3] was “irreversibly deactivated” and the “signal in AGP3 sandwich ELISA” value (immobilized AGP3) was “lack of signal”.
